Source: patent US20130074217A1 (NUTECH VENTURES, published 2013)

T1: EFR-YFPc / EFR-YFPn (Arabidopsis thaliana, UniProt C0LGT6 25-1031)
T1 construct: Two BiFC constructs used in both combinations, expressed in N. benthamiana leaves; not shown: split-YFP half (YFPc or YFPn) from the BiFC vector
T1 sequence (looked up): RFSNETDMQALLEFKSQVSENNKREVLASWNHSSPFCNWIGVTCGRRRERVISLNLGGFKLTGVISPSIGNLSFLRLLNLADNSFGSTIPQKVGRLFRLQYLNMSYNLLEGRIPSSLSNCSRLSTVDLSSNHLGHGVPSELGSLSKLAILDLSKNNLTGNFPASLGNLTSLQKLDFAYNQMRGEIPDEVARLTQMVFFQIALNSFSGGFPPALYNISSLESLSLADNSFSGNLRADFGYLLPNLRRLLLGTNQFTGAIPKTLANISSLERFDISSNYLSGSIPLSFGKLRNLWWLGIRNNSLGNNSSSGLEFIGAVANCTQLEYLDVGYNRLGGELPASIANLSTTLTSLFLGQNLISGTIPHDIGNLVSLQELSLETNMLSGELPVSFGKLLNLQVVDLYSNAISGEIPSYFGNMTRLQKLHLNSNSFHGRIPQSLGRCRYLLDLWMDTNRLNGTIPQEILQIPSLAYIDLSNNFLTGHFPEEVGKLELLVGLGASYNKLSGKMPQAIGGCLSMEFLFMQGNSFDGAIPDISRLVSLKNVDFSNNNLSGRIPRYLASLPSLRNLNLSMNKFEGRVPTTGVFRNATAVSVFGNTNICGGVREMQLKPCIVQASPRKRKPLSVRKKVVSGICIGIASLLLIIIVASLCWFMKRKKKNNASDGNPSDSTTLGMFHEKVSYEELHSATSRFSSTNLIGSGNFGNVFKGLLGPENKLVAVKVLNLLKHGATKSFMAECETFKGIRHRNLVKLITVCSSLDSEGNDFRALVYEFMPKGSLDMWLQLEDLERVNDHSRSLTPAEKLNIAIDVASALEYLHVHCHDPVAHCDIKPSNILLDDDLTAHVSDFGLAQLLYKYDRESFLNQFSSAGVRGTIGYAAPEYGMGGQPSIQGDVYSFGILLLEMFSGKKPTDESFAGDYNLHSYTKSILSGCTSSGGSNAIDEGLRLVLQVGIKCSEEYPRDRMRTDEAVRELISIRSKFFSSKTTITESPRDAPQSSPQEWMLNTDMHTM

T2: BAK1-HA (Arabidopsis thaliana, UniProt Q94F62 26-615)
T2 construct: Transiently expressed in N. benthamiana; also called LRR-RK BAK1; 35S::BAK1-HA; not shown: HA tag
T2 sequence (looked up): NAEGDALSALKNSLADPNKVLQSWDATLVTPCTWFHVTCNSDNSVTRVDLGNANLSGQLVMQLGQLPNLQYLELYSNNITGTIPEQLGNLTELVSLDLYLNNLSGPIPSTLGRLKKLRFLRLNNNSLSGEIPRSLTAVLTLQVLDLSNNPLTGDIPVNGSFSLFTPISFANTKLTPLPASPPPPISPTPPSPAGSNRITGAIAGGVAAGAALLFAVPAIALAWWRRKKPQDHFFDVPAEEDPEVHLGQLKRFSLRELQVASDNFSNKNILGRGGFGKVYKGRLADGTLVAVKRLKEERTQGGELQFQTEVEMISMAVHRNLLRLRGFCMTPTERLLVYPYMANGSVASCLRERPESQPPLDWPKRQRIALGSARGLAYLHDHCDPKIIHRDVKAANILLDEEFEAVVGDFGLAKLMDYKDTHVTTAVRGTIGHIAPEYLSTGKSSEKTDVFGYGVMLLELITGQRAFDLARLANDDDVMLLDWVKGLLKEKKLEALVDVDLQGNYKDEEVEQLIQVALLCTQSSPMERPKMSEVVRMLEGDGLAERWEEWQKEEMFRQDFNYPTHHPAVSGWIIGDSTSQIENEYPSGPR

B1: GRP7-YFPn / GRP7-YFPc (other)
chain: MASGDVEYRCFVGGLAWATDDRALETAFAQYGDVIDSKIINDRETGRSRGFGFVTFKDEKAMKDAIEGMNGQDLDGRSITVNEAQSRGSGGGGGHRGGGGGGYRSGGGGGYSGGGGSYGGGGGRREGGGGYSGGGGGYSSRGGGGGSYGGGRREGGGGYGGGEGGGYGGSGGGGGW
notes: Two BiFC constructs (N- or C-terminal YFP half) used in both combinations; Results are reported for them together; also called GRP7-YFPn/c; not shown: split-YFP half (YFPn or YFPc) from the pAM-PAT-35S BiFC vector
B2: GRP7-eGFP (other)
chain: B1 chain
notes: Transiently expressed in N. benthamiana under the 35S promoter; also called 35S::GRP7-eGFP; not shown: C-terminal enhanced green fluorescent protein (eGFP) tag

Legend:
EFR-YFPc / EFR-YFPn = biological target: T1, EFR-YFPc / EFR-YFPn; experiment: bimolecular fluorescence complementation in N. benthamiana (panel B)
Description: Interaction assays were performed in presence or absence of the auxotrophic amino acid leucine (Leu). […] Scale bar corresponds to 20 μm. Photographs were taken 2 days after infiltration and are representative of the total observations (n=60). All results shown are representative of three independent experiments.

FLS2-YFPc / FLS2-YFPn = biological target: T3, FLS2-YFPc / FLS2-YFPn (Arabidopsis thaliana, UniProt Q9FL28 24-1173); experiment: bimolecular fluorescence complementation in N. benthamiana, with plasmolysis (panel E)
T3 construct: Two BiFC constructs used in both combinations, expressed in N. benthamiana leaves; not shown: split-YFP half (YFPc or YFPn) from the BiFC vector

BAK1-HA = biological target: T2, BAK1-HA; experiment: co-immunoprecipitation with GFP Trap beads after transient co-expression in N. benthamiana
Description: Total proteins (input) were subjected to immunoprecipitation with GFP Trap beads followed by immunoblot analysis. […] Total proteins (input) were subjected to immunoprecipitation with GFP Trap beads followed by immunoblot analysis. […] All results shown are representative of three independent experiments.
Total proteins were extracted in a buffer including 100 mM Tris-HCl pH 7.5, 150 mM NaCl, 5 mM EDTA, 5% glycerol, 10 mM DTT, 0.5% Triton X-100, 1% Igepal and protease inhibitors (Sigma). For co-immunoprecipitation, anti-HA beads (Roche) or anti-GFP-TRAP-A beads (Chromotek) were incubated with total proteins and then washed with the extraction buffer. Proteins were fractioned on SDS-PAGE, transferred onto PVDF membranes (Bio-Rad) and then detected using specific antibodies. […] Epitope-tagged proteins were detected with a peroxidase-conjugated anti-HA-HRP (Santa Cruz); mouse monoclonal anti-GFP antibodies (AMS); or anti-HRP antibodies (Santa Cruz). The secondary anti-rabbit-HRP antibodies (Sigma) were used when appropriate. Immunodetection was performed with ECL chemiluminescence reagent (GE).

T3 sequence (Q9FL28 24-1173): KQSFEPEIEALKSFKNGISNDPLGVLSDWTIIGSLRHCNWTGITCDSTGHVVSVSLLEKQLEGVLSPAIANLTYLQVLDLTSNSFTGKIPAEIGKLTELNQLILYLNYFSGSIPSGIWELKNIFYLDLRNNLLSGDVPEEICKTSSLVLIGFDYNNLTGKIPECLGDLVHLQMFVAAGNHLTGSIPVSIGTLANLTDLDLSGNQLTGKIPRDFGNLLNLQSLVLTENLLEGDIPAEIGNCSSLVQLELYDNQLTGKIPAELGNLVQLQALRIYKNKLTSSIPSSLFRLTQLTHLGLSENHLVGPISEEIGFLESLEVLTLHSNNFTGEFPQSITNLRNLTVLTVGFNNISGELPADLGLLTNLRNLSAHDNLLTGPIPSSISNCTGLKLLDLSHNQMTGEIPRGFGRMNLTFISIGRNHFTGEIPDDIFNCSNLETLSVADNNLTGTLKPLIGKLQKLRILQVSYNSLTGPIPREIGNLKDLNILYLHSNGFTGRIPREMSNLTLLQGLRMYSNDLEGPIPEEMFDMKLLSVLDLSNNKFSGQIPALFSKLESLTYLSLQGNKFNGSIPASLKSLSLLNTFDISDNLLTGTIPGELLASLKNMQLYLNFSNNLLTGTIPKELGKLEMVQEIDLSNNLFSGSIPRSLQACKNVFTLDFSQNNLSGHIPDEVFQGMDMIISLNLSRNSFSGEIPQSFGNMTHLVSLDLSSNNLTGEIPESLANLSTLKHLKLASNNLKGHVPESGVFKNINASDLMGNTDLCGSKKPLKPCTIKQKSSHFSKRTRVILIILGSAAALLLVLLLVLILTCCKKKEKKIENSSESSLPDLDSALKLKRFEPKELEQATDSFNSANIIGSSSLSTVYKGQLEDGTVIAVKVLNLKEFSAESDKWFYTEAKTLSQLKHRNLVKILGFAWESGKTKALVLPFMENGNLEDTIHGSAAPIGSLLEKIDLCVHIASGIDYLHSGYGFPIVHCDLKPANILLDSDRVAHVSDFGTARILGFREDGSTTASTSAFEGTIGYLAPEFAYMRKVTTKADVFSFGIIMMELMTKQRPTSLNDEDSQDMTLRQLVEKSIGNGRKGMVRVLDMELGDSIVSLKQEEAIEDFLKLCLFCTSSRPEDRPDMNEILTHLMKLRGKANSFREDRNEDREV

Binder | binding result (EFR-YFPc / EFR-YFPn) | binding result (FLS2-YFPc / FLS2-YFPn) | binding result (BAK1-HA)
B1 | binds | binds | 
B2 |  |  | no binding
